{"source": "patent US20250332278A1", "about": "“MULTIVALENT DISPLAY OF APOAI PEPTIDE ON NANOPARTICLES AGAINST ATHEROSCLEROSIS” (The Regents of the University of California, priority 2022, published 2025)", "molecules": {"B1": {"name": "TMV (protein)", "chain": "MSYSITTPSQFVFLSSAWADPIELINLCTNALGNQFQTQQARTVVQRQFSEVWKPSPQVTVRFPDSDFKVYRYNAVLDPLVTALLGAFDTRNRIIEVENQANPTTAETLDATRRVDDATVAIRSAINNLIVELIRGTGSYNRSSFESSSGLVWTSGPK"}, "B2": {"name": "Qβ-4FN: bacteriophage Qβ VLP conjugated to ApoAI peptide 4FN via SM(PEG)4 (conjugate)", "chain": "AKLETVTLGNIGKDGKQTLVLNPRGVNPTNGVASLSQAGAVPALEKRVTVSVSQPSRNRKNYKVQVKIQNPTACTANGSCDPSVTRQAYADVTFSFTQYSTDEERAFVRTELAALLASPLLIDAIDQLNPAY", "peptide": "CSGGGDWFKAFYDKVAEKFKEAF"}, "B3": {"name": "T-4FN: TMV-Lys nanoparticle with 4FN ApoAI peptide conjugated to surface lysines via SM(PEG)4 maleimide-thiol chemistry (conjugate)", "chain": "SYSITTPSQFVFLSSAWADPIELINLCTNALGNQFQTQQARTVVQRQFSEVWKPSPQVTVRFPDSDFKVYRYNAVLDPLVTALLGAFDTRNRIIEVENQANPTTAETLDATRRVDDATVAIRSAINNLIVELIRGTGSYNRSSFESSSGLVWTSGPK", "peptide": "CSGGGDWFKAFYDKVAEKFKEAF"}}, "key": {"[1]": {"biological_target": "ATP-binding cassette transporter A1 (ABCA1) on J774 foam cells (UniProt P41233)", "sequence (P41233 whole entry)": "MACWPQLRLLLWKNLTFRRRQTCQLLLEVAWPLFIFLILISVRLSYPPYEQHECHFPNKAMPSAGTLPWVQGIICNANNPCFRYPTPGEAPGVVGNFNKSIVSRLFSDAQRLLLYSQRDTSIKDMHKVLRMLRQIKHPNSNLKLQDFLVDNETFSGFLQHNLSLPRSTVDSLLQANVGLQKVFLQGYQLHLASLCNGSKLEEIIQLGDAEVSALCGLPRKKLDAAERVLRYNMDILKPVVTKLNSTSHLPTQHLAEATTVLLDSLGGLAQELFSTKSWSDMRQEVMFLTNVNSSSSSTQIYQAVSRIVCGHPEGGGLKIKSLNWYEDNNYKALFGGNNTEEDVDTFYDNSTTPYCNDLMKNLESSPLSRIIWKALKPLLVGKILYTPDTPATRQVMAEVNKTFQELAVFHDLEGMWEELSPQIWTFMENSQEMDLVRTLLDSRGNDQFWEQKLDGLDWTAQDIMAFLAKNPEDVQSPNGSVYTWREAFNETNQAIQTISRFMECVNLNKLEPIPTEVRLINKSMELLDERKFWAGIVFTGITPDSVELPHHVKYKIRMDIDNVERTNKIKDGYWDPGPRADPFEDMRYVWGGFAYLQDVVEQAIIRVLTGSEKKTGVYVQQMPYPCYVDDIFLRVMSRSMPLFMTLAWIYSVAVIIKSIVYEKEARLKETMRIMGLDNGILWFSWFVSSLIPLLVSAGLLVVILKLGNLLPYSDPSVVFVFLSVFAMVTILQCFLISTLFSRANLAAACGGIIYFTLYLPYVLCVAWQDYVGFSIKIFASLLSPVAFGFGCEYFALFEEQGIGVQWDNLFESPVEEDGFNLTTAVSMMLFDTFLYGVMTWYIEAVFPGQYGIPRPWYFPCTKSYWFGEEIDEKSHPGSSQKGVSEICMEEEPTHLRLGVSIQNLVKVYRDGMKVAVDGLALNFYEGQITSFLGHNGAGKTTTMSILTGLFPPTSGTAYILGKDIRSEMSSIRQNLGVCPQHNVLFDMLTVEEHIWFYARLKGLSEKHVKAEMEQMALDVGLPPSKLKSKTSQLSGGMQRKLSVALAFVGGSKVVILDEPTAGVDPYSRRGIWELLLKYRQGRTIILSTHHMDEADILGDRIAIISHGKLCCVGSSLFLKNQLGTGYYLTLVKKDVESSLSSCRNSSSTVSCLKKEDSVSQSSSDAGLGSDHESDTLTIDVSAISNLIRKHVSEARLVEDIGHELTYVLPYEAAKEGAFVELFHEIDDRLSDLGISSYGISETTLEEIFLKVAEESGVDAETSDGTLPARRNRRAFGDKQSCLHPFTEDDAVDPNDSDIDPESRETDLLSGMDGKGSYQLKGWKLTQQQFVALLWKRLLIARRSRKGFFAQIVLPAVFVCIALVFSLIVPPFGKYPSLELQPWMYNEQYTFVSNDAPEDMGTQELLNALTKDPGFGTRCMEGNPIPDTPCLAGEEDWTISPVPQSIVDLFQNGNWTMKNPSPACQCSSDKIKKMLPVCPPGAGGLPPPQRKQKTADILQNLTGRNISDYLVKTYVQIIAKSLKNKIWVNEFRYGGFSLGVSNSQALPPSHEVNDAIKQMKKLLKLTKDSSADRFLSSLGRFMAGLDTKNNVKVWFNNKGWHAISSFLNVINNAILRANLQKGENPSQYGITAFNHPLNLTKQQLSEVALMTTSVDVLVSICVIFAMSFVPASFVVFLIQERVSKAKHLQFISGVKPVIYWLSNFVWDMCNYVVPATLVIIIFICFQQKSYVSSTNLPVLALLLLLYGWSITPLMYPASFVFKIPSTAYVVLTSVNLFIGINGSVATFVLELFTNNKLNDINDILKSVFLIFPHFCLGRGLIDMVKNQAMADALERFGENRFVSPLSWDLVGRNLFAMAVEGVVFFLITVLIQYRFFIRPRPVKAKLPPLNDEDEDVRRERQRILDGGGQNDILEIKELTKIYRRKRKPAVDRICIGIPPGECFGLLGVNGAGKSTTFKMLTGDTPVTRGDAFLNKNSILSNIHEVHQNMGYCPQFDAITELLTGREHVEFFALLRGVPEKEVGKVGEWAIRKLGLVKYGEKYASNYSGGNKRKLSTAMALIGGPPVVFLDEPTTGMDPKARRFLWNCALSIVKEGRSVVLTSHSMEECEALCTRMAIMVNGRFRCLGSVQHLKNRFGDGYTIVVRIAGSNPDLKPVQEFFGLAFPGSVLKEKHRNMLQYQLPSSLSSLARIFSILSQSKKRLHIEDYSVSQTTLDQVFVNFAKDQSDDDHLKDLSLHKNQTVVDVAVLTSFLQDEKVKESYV", "assay": "cell-based or functional assay"}, "SVEC cells [2]": {"tested_on": "SVEC cells", "assay": "ROS assay", "type": "cell-based", "conditions": "8 h treatment (0.5 μM particles or matched free peptide), then ox-LDL 4 h", "method": "ROS assay. SVEC cells (ATCC) were seeded in four-compartment 35-mm CELLview glass-bottom dishes or 96-well plates at 6×10^4 cells/mL in 500 μL DMEM and were allowed to reach ˜80% confluence. The medium was then removed, and the cells were washed once with PBS before incubation with VLPs/VNPs for 8 h. Applicant then added 100 μg/mL ox-LDL for 4 h to induce oxidative stress and detected ROS using a CellROX Green Reagent Kit. Images were captured using a Nikon AiR confocal microscope with a 20×, 0.75 numerical aperture dry objective."}, "[3]": {"assay": "Dynamic light scattering of VLP/VNP conjugates", "type": "physicochemical", "conditions": "1 mg/mL in 0.01 M KP buffer", "method": "Dynamic Light Scattering (DLS). The hydrodynamic diameter of VLPs/VNPs conjugates were probed using a Zetasizer Nano ZSP/Zen5600 instrument (Malvern Panalytical, Malvern, UK). Particle hydrodynamic diameter was calculated as the weighted mean of the intensity distribution and samples were analyzed at 1 mg/mL concentration in 0.01 M KP buffer."}, "[4]": {"tested_on": "J774 foam cells (ABCA1-mediated cholesterol efflux)", "assay": "J774 cholesterol efflux assay", "type": "cell-based", "method": "J774 Cholesterol efflux assay. Cholesterol efflux was measured from J774 cells (ATCC) as previously described.^23 Briefly, J774 cells were seeded in 96-well plates at 1×10^5 cells/100 μL in DMEM (Corning) with 10% (v/v) fetal bovine serum (FBS) and 1% (w/v) penicillin-streptomycine (P/S). Cells were incubated until they reached ˜80% confluence. After two rinses with FBS-free DMEM containing 1% (w/v) P/S they were incubated for 48 h in 200 μL FBS-free DMEM containing 40 μg/mL acetylated low-density lipoprotein (AcLDL), 2 μg/mL Sandoz inhibitor, 1% (w/v) P/S, and 5% (v/v) human lipoprotein-deficient serum (LPDS) to produce foam cells. Excess lipids were removed by two rinses as above, and foam cells were equilibrated for 12 h in 200 μL FBS-free DMEM, 2 μg/mL Sandoz inhibitor, 0.3 mM CPT-cAMP, 1% (w/v) P/S, and 5% (v/v) human LPDS. After two further rinses, cholesterol efflux was initiated by adding different VLP/VNP or peptide treatments in FBS-free DMEM containing 1% (w/v) P/S and 5% (v/v) human LPDS and incubating for 15 h. The medium was then collected, centrifuged (1000×g, 10 min, 4° C.) and the cholesterol content of the supernatant was determined using the Amplex assay kit. Cells were washed three times with ice-cold PBS, lysed using 200 μL of Cytobuster lysis buffer, and the cholesterol content of the lysate was determined using the Amplex assay kit. Cholesterol efflux was calculated by dividing the amount of cholesterol in the medium by the total cholesterol content of the medium and lysate."}, "SVEC cells [5]": {"tested_on": "SVEC cells", "assay": "Wound healing assay under oxidative stress", "type": "cell-based", "conditions": "0.5 μM, 8-h treatment, 4-h 50 μg/mL ox-LDL, versus control (serum-free medium)", "method": "Wound healing assay. SVEC cell migration was investigated using a Radius 96-well kit (Cell Bio Labs). Applicant seeded 3×10^4 cells in 200 μL DMEM per well and allowed the cells to reach ˜80% confluence. After removing the Radius Gel, cells were allowed to migrate for 24 h in the presence of various treatments. Bright-field phase contrast images were acquired after 0, 12 and 24 h using an EVOS FL microscope fitted with a 10× objective (n=6 cells per group). Percentage wound closure was calculated by tracing the wound perimeter in ImageJ to calculate the area at t=12 or 24 h and dividing by the initial starting area at t=0 h.\nApplicant therefore evaluated the effect of T-4FN on wound healing using SVEC cells."}, "[6]": {"assay": "BODIPY-cholesterol binding assay (DLS and fluorescence)", "conditions": "for PDI after incubation with BODIPY-cholesterol / Zav after incubation with BODIPY-cholesterol: 20 uM BODIPY-cholesterol; for PDI after incubation with BODIPY-cholesterol: 2 h at 37° C.; for size change / cholesterol binding on incubation with BODIPY-cholesterol: relative to cholesterol-free controls", "method": "BODIPY-Cholesterol Binding assay. A fluorescent cholesterol, BODIPY-cholesterol or 23-(dipyrrometheneboron difluoride)-24-norcholesterol was used to examine the HDL biomimics' ability to uptake cholesterol. VNP samples (500 μg) and equimolar HDL were incubated with 20 uM BODIPY-cholesterol for 2 hours at 37° C. on a shaker at 150 rpm in 0.5 mL of 10 mM KP/DMSO. After incubation, samples were purified by centrifuge using 100 kDa molecular-weight cutoff Amicon spin-filters to remove free, unbound cholesterol. Samples were analyzed for size on DLS (see above) and fluorescence before and after BODIPY-cholesterol binding using 480/508 nm excitation/emission parameters on a Tecan Plate Reader.\nTo investigate the ability of the TMV particles to bind cholesterol, Applicant mixed them with fluorescent BODIPY cholesterol for 2 h at 37° C. in 0.01M KP/DMSO (50:50).\nThe cholesterol-bound nanoparticles were separated from free cholesterol by centrifugation in spin filters with a 100-kDa cutoff. Samples without cholesterol were incubated as a negative control. Purified fractions were analyzed by DLS and fluorimetry."}, "J774 foam cells": {"tested_on": "J774 foam cells", "assay": "TMV-ApoAI distribution during cholesterol efflux from J774 foam cells (confocal fluorescence microscopy)", "type": "cell-based", "conditions": "0.5 μM 5FAM-labeled particles, 12 h", "method": "TMV-ApoAI distribution during cholesterol efflux from J774 foam cells. Applicant seeded 1×10^5 J774 cells in 500 μL DMEM containing 10% (v/v) FBS and 1% (w/v) P/S into each zone of a four-compartment 35-mm CELLview glass-bottom dish, and allowed them to reach ˜80% confluence. Cells were rinsed twice with 500 μL FBS-free DMEM containing 1% (w/v) P/S and incubated for 48 h in 200 μL FBS-free DMEM containing 40 μg/mL of fluorescence-labeled acetylated low-density lipoprotein (Dil-AcLDL), 2 μg/mL Sandoz inhibitor, 1% (w/v) P/S, and 5% (v/v) human LPDS to produce labeled foam cells. After two rinses as above, foam cells were equilibrated for 12 h in 200 μL FBS-free DMEM containing 2 μg/mL Sandoz inhibitor, 0.3 mM CPT-cAMP, 1% (w/v) P/S, and 5% (v/v) human LPDS. After two further rinses, the cells were treated with 100 μL of 5FAM-labeled treatments and controls in FBS-free DMEM containing 1% (w/v) P/S and 5% (v/v) human LPDS. After 12 h, the cells were washed twice with 500 μL PBS and then fixed for 10 minutes at room temperature using a PBS solution containing 10% (w/v) PFA, 25% (w/v) glutaraldehyde. Cells were then twice washed with PBS and subsequently stained for 45 min with 300 μL of wheat-germ agglutinin AlexaFluor 647 (WGA-647) prepared in PBS and 5% (v/v) goat serum at a 1:500 dilution. Cells were then twice washed with PBS and then stained with 300 μL DAPI dye (5 μg/mL in PBS) for 20 min. Cells were washed twice with PBS and then imaged using a Nikon AiR confocal microscope with a 20×, 0.75 numerical aperture dry objective.\nA fluorescently labeled T-4FN-5FAM was used to promote cholesterol efflux from fluorescently-labeled foam cells (FIG. 5A and FIG. 15B). Cholesterol and T-4FN-5FAM fluorescence was quantified using Nikon AR Elements Analysis software's 3D volume viewer tool and plotted in a bar graph (FIG. 5C and FIG. 5D)."}}}
{"molecule": "TMV-4FN conjugate (TMV-Lys nanoparticle displaying ApoAI peptide 4FN through an SM(PEG)4 linker) (from UniProt P69687 2-157)", "values": [{"measurement": "cholesterol efflux from J774 foam cells under upregulated ABCA1 conditions (fold (against TMV-4FC))", "setting": "[1]", "result": 2.5}]}
{"molecule": "CGVLESFKASFLSALEEWTKKLQ [23MJ]", "values": [{"measurement": "ROS production (mitigation)", "setting": "SVEC cells [2]", "result": "did not mitigate ROS"}]}
{"molecule": "Qβ: 30-nm spherical virus-like particle with 180 identical coat protein units (SEQ ID NO: 6)", "values": [{"measurement": "PDI (DLS)", "setting": "[3]", "result": 0.06}, {"measurement": "Zav (hydrodynamic diameter, DLS)", "setting": "[3]", "result": "~30.4", "unit": "nm"}]}
{"molecule": "CSGGGDWFKAFYDKVAEKFKEAF [4FN]", "values": [{"measurement": "cholesterol efflux", "setting": "[4]; upregulated ABCA1 conditions", "result": "most potent peptide"}, {"measurement": "increase in wound closure after 24 h", "setting": "SVEC cells [5]", "result": 3.20, "unit": "fold"}]}
{"molecule": "B1", "values": [{"measurement": "PDI after incubation with BODIPY-cholesterol", "setting": "[6]", "result": 0.158}, {"measurement": "Zav after incubation with BODIPY-cholesterol", "setting": "[6]; 2 h at 37° C. in 0.01M KP/DMSO", "result": 293.6, "unit": "nm"}, {"measurement": "PDI before incubation with BODIPY-cholesterol", "setting": "[6]; cholesterol-free control", "result": 0.240}, {"measurement": "size change / cholesterol binding on incubation with BODIPY-cholesterol", "setting": "[6]", "result": "inherent affinity for cholesterol"}, {"measurement": "PDI (DLS)", "setting": "[3]", "result": 0.230}, {"measurement": "Zav (hydrodynamic diameter, DLS)", "setting": "[3]", "result": "~203.1", "unit": "nm"}, {"measurement": "Dil-LDL cholesterol fluorescence intensity (cell-associated)", "setting": "J774 foam cells", "result": "promotes a baseline level of cholesterol efflux"}, {"measurement": "localization of particles on foam cells", "setting": "J774 foam cells", "result": "mostly observed within the foam cells"}, {"measurement": "increase in wound closure after 12 h", "setting": "SVEC cells [5]", "result": 2.58, "unit": "fold"}, {"measurement": "increase in wound closure after 24 h", "setting": "SVEC cells [5]", "result": 3.15, "unit": "fold"}]}
{"molecule": "B2", "values": [{"measurement": "cholesterol efflux", "setting": "[4]; upregulated ABCA1 conditions", "result": "does not display significant cholesterol efflux"}, {"measurement": "PDI (DLS)", "setting": "[3]", "result": 0.177}, {"measurement": "Zav (hydrodynamic diameter, DLS)", "setting": "[3]", "result": "~40.5", "unit": "nm"}]}
{"molecule": "B3", "values": [{"measurement": "cholesterol efflux when ABCA1 receptor is not upregulated", "setting": "[4]; homeostatic ABCA1 conditions, FIG. 4D", "result": "drastically decreases"}, {"measurement": "cholesterol efflux potency relative to TMV-4FC", "setting": "[4]; upregulated ABCA1 conditions, FIGS. 4B-4C", "result": "~2.5", "unit": "fold"}, {"measurement": "PDI after incubation with BODIPY-cholesterol", "setting": "[6]", "result": 0.145}, {"measurement": "Zav after incubation with BODIPY-cholesterol", "setting": "[6]; 2 h at 37° C. in 0.01M KP/DMSO", "result": 708.8, "unit": "nm"}, {"measurement": "change in fluorescence after BODIPY-cholesterol binding", "setting": "[6]; 480/508 nm, signal after minus before binding", "result": "most intense signal"}, {"measurement": "PDI before incubation with BODIPY-cholesterol", "setting": "[6]; cholesterol-free control", "result": 0.193}, {"measurement": "Zav before incubation with BODIPY-cholesterol", "setting": "[6]; cholesterol-free control, 2 h at 37° C. in 0.01M KP/DMSO", "result": 220.5, "unit": "nm"}, {"measurement": "size change / cholesterol binding on incubation with BODIPY-cholesterol", "setting": "[6]", "result": "greatest change"}, {"measurement": "PDI (DLS)", "setting": "[3]", "result": 0.266}, {"measurement": "Zav (hydrodynamic diameter, DLS)", "setting": "[3]", "result": "~255.8", "unit": "nm"}, {"measurement": "Dil-LDL cholesterol fluorescence intensity (cell-associated)", "setting": "J774 foam cells", "result": "significantly lower"}, {"measurement": "fluorescence intensity of 5FAM (cell-associated)", "setting": "J774 foam cells", "result": "significantly higher"}, {"measurement": "localization of particles on foam cells", "setting": "J774 foam cells", "result": "extracellular, forming a dense layer on the plasma membrane"}, {"measurement": "increase in wound closure after 12 h", "setting": "SVEC cells [5]", "result": 6.41, "unit": "fold"}, {"measurement": "increase in wound closure after 24 h", "setting": "SVEC cells [5]", "result": 4.70, "unit": "fold"}, {"measurement": "ROS production (mitigation)", "setting": "SVEC cells [2]", "result": "reducing the ROS signal to near the level of the negative media control"}]}
